Source: article PMC8489928 (mAbs, 2021)
Blank lines part the entries; values can stand above or below the molecule they belong to.

Experiments:
Mouse CD96 D1 (mouse) = Mouse CD96 D1 (mouse) (UniProt Q3U0X8); assay: SEC-MALS
Human CD96 D1 (human) = Human CD96 D1 (human) (UniProt P40200); assay: SEC-MALS
SEC-MALS = biological target: the molecule itself; assay: SEC-MALS
Mouse CD96 D1 [1] = biological target: T1, Mouse CD96 D1 (mouse, UniProt Q3U0X8); assay: SPR
Mouse CD96 D1 [2] = biological target: T1, Mouse CD96 D1; assay: SEC-MALS

B1: Mouse CD96 D1-D3 (domain or fragment, UniProt Q3U0X8 22-536, looked up)
chain: VWEELFNVGDDVYALPGSDINLTCQTKEKNFLVQMQWSKVTDKNDMIALYHPQYGLYCGQEHACESQVAATETEKGVTNWTLYLRNISSALGGKYECIFTLYPEGIKTTVYNLIVEPYTQDEHNYTIEIETNRTLEIPCFQNTSSEIPPRFTFSWLVEKDGVEEVLFTHHHHVNNSTSFKGRIRLGGDYRLHLSPVQIQDDGRTFSCHLTVNPLKAWKMSTTVKVFAKPEILMTVENSTMDVLGERVFTCLLKNVFPKANITWFIDGRFLQGNEEGIYITNEEKNCSSGFWELKSVLTRMHSGPSQSNNMTAWCMALSPGPRNKMWNTSSQPITVSFDSVIAPTKHLPTVTGSTLGTQPFSDAGVSPTGYLATPSVTIVDENGLTPDATPQTSNSSMTTKDGNYLEASSGTDAKNSSRAAASSKSGSWPFPFTSPPEWHSLPGTSTGPQEPDSPVSWIPSEVHTSAPLDASLAPHDTIISTTTEFPNVLTTANGTTKIDHGPITSIIVNQPSDGM
stoichiometry N (SEC-MALS): 2

B2: Mouse CD96 D1 (domain or fragment, UniProt Q3U0X8 22-134, looked up)
chain: VWEELFNVGDDVYALPGSDINLTCQTKEKNFLVQMQWSKVTDKNDMIALYHPQYGLYCGQEHACESQVAATETEKGVTNWTLYLRNISSALGGKYECIFTLYPEGIKTTVYNL
stoichiometry N (SEC-MALS): 2

B8: Human CD96 D1 (domain or fragment, UniProt P40200 22-140, looked up)
chain: VWEKTVNTEENVYATLGSDVNLTCQTQTVGFFVQMQWSKVTNKIDLIAVYHPQYGFYCAYGRPCESLVTFTETPENGSKWTLHLRNMSCSVSGRYECMLVLYPEGIQTKIYNLLIQTHV
stoichiometry N (SEC-MALS): 2

B9: Human CD96 D1-D3 (domain or fragment, UniProt P40200 22-519, looked up)
chain: VWEKTVNTEENVYATLGSDVNLTCQTQTVGFFVQMQWSKVTNKIDLIAVYHPQYGFYCAYGRPCESLVTFTETPENGSKWTLHLRNMSCSVSGRYECMLVLYPEGIQTKIYNLLIQTHVTADEWNSNHTIEIEINQTLEIPCFQNSSSKISSEFTYAWSVENSSTDSWVLLSKGIKEDNGTQETLISQNHLISNSTLLKDRVKLGTDYRLHLSPVQIFDDGRKFSCHIRVGPNKILRSSTTVKVFAKPEIPVIVENNSTDVLVERRFTCLLKNVFPKANITWFIDGSFLHDEKEGIYITNEERKGKDGFLELKSVLTRVHSNKPAQSDNLTIWCMALSPVPGNKVWNISSEKITFLLGSEISSTDPPLSVTESTLDTQPSPASSVSPARYPATSSVTLVDVSALRPNTTPQPSNSSMTTRGFNYPWTSSGTDTKKSVSRIPSETYSSSPSGAGSTLHDNVFTSTARAFSEVPTTANGSTKTNHVHITGIVVNKPKDGM
stoichiometry N (SEC-MALS): 2

Next, values leading:

stoichiometry N (Mouse CD96 D1 (mouse)): 1
Molecule: Mouse CD155 (ligand)

stoichiometry N (Human CD96 D1 (human)): 1
Molecule: Human CD155 (from UniProt P15151 21-417) (ligand)

binding result (Mouse CD96 D1 [1]): binds
B3: mCD96-A heavy-chain G56K (Fab, V domains shown)
VH: QVQLKESGPGLVQPSQTLSLTCTVSGLSLTTNSVSWIRQPPGKGLEWMGVIWSNGKTDYNSDIKSRLSISRDTSKSQVFLKMNSLQTEDTAMYFCARNFPYPGINFDWGQGVMVTVSS
VL: QAVVTQESALTTLPGGTVTLTCHSSTGAVTTSNYANWIQEKADHSFTAILGGTSNRAPGTPARFSGSLLEGKAALTITGAQVEDEATYFCSLWYSGHLIFGGGTKLTVK

stoichiometry N (Mouse CD96 D1 [2]): 1
B4: mCD96-A Fab (Fab, V domains shown)
VH: QVQLKESGPGLVQPSQTLSLTCTVSGLSLTTNSVSWIRQPPGKGLEWMGVIWSNGGTDYNSDIKSRLSISRDTSKSQVFLKMNSLQTEDTAMYFCARNFPYPGINFDWGQGVMVTVSS
VL: QAVVTQESALTTLPGGTVTLTCHSSTGAVTTSNYANWIQEKADHSFTAILGGTSNRAPGTPARFSGSLLEGKAALTITGAQVEDEATYFCSLWYSGHLIFGGGTKLTVK

binding result (Mouse CD96 D1 [1]): binds
B5: mCD96-A light-chain G50H (Fab, V domains shown)
VH: QVQLKESGPGLVQPSQTLSLTCTVSGLSLTTNSVSWIRQPPGKGLEWMGVIWSNGGTDYNSDIKSRLSISRDTSKSQVFLKMNSLQTEDTAMYFCARNFPYPGINFDWGQGVMVTVSS
VL: QAVVTQESALTTLPGGTVTLTCHSSTGAVTTSNYANWIQEKADHSFTAILGHTSNRAPGTPARFSGSLLEGKAALTITGAQVEDEATYFCSLWYSGHLIFGGGTKLTVK

stoichiometry N (Mouse CD96 D1 [2]): 1
B6: mCD96-A-7 Fab (Fab, V domains shown)
VH: QVQLKESGPGLVQPSQTLSLTCTVSGLSLTTNSVSWIRQPPGKGLEWMGVIWSNGKTDYNSDIKSRLSISRDTSKSQVFLKMNSLQTEDTAMYFCARNFPYPGINMDWGQGVMVTVSS
VL: QAVVTQESALTTLPGGTVTLTCHSSTGAVTTSNYANWIQEKADHSFTAILGHTSNRAPGTPARFSGSLLEGKAALTITGAQVEDEATYFCSLWYSGHLIFGGGTKLTVK

binding result (Mouse CD96 D1 [1]): binds
B7: mCD96-A heavy-chain F101M (Fab, V domains shown)
VH: QVQLKESGPGLVQPSQTLSLTCTVSGLSLTTNSVSWIRQPPGKGLEWMGVIWSNGGTDYNSDIKSRLSISRDTSKSQVFLKMNSLQTEDTAMYFCARNFPYPGINMDWGQGVMVTVSS
VL: QAVVTQESALTTLPGGTVTLTCHSSTGAVTTSNYANWIQEKADHSFTAILGGTSNRAPGTPARFSGSLLEGKAALTITGAQVEDEATYFCSLWYSGHLIFGGGTKLTVK
